Tested on: peptide library, one residue held at a place counted from the S/T acceptor
Assay: relative phosphorylation of the sub-library (ratio to the mean residue at this position); human; higher = residue favoured
How it was run: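 Relative sub-library phosphorylation, a ratio to the mean residue at that position, was obtained by phosphorimaging and densitometry of spots on streptavidin membranes. Before capture, purified recombinant kinases were incubated for 90 min under kinase-specific conditions with 50 μM biotinylated degenerate peptide sub-libraries and 50 μM ATP spiked with γ-32P-ATP. Each sub-library fixed one residue at one position around a central Ser/Thr.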

Chain of RPS6KA6, construct: Full length (Q9UK32 whole entry, looked up): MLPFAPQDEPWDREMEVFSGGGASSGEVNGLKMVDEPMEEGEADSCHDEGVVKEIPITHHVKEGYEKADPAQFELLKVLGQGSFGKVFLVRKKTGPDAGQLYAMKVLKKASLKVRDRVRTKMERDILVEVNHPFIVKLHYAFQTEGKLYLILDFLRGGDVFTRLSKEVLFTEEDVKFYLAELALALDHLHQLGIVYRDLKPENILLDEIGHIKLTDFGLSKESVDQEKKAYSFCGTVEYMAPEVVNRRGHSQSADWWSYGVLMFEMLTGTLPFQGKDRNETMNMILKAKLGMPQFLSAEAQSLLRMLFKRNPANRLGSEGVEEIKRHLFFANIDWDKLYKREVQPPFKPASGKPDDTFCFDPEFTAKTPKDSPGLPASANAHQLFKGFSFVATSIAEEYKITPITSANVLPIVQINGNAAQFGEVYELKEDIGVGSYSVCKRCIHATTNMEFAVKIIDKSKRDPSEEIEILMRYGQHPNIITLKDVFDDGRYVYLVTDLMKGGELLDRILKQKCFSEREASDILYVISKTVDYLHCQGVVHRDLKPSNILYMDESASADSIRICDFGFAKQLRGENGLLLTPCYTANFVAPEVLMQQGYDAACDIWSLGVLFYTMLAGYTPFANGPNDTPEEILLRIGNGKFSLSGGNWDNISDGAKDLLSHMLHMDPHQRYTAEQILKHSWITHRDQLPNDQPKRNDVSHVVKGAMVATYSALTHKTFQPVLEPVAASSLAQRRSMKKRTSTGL
Chain of MELK, construct: aa1-340 (Q14680 1-340, looked up): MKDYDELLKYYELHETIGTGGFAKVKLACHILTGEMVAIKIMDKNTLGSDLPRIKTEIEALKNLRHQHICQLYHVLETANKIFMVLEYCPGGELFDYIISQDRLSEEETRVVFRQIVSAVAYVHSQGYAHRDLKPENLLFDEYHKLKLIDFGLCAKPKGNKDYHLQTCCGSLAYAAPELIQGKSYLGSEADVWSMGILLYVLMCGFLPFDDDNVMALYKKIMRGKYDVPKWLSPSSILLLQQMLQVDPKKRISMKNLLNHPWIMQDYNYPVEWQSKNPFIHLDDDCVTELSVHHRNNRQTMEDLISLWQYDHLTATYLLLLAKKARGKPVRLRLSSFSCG

RPS6KA6, construct: Full length (from UniProt Q9UK32)
relative phosphorylation
Details	at +1	at +2	at +3	at +4	at -1	at -2	at -3	at -4	at -5
A fixed	0.637	0.911	0.754	0.964	0.769	0.556	0.382	0.988	0.874
D fixed	0.481	1.09	1.24	1.3	0.622	0.544	0.444	0.785	0.613
E fixed	1.44	0.799	1.65	1.36	0.635	0.549	0.417	0.96	0.608
F fixed	1.16	0.623	0.837	0.671	0.525	0.463	0.251	0.582	0.7
G fixed	0.574	0.967	1.23	1.37	1.1	0.812	0.527	1.13	0.932
H fixed	0.943	2.06	1.29	1.12	0.934	1.04	0.564	0.915	1
I fixed	1.49	0.54	0.708	0.609	0.262	0.364	0.205	0.479	0.433
K fixed	1.14	0.761	1.12	1.03	2.1	2.65	1.75	1.95	2.56
L fixed	1.1	0.498	0.815	0.648	0.657	1.01	0.245	0.563	0.539
M fixed	1.08	0.594	0.717	0.82	0.863	0.522	0.314	0.8	0.545
N fixed	0.986	1.13	1.1	1.04	1.49	0.675	0.541	0.822	0.687
P fixed	0.407	0.498	0.699	1.66	2.81	0.914	1.11	1.49	0.755
Q fixed	1.17	0.724	1.08	1.04	1	0.644	0.548	0.917	0.657
R fixed	0.949	1.31	1.01	0.906	1.53	5.3	8.88	2.69	4.15
V fixed	1.78	0.575	0.696	0.625	0.36	0.265	0.208	0.568	0.538
W fixed	0.716	1.58	0.975	1.03	0.468	0.27	0.286	0.681	0.705
Y fixed	0.948	2.34	1.07	0.81	0.872	0.424	0.325	0.676	0.697
pThr fixed	2.29	1.05	1.56	2.31	0.471	0.51	0.399	0.692	0.543
pTyr fixed	1.69	1.18	1.86	1.37	0.705	0.517	0.442	0.645	0.647

MELK, construct: aa1-340 (from UniProt Q14680)
relative phosphorylation
Details	at +1	at +2	at +3	at +4	at -1	at -2	at -3	at -4	at -5
A fixed	1.02	0.961	0.744	0.748	0.777	1.24	0.757	1.12	0.927
D fixed	0.349	0.324	0.902	0.634	0.495	0.251	0.225	0.47	0.446
E fixed	0.447	0.274	0.436	0.558	0.469	0.305	0.256	0.658	0.392
F fixed	2.31	0.923	1.21	0.987	0.78	1.07	0.478	0.674	1.18
G fixed	0.949	0.79	0.855	1.02	0.711	0.78	0.707	1.24	0.884
H fixed	0.994	1.02	1.47	1.04	1.25	1.33	1.18	1.11	0.871
I fixed	0.511	1.64	0.77	1.26	0.783	0.667	0.347	0.669	1.13
K fixed	1.38	0.858	0.938	1.03	1.89	1.63	2.74	2.08	1.49
L fixed	0.752	1.79	1.02	1.84	1.07	0.681	0.454	0.761	1.76
M fixed	1.14	1.68	0.986	1.1	1.1	0.951	0.484	0.903	1.22
N fixed	0.837	0.873	1.48	0.988	1.19	1.09	0.742	1.02	0.711
P fixed	0.171	0.598	0.553	1.23	1.07	0.419	0.751	1.01	1.03
Q fixed	1.54	0.723	1.05	0.952	1.12	1.42	0.784	0.844	0.902
R fixed	1.72	1.28	1.12	1.03	1.71	1.79	5.37	1.81	1.67
V fixed	0.705	1.54	0.79	1.05	0.885	0.893	0.394	0.701	0.814
W fixed	0.959	0.808	1.69	0.848	0.601	1.15	0.676	1.1	0.766
Y fixed	1.22	0.935	1	0.673	1.09	1.33	0.653	0.831	0.806
pThr fixed	0.647	0.364	0.33	0.662	0.311	0.354	0.33	0.438	0.508
pTyr fixed	0.551	0.407	0.409	0.425	0.709	0.295	0.332	0.382	0.517

— the supplement of paper PMC9876800
